Data on four molecules can be found in patent publication US20250034601A1 (PURDUE RESEARCH FOUNDATION, published 2025).

B3: MBP-PhBSα (maltose binding protein-tagged alpha subunit of Petunia hybrida benzaldehyde synthase) (enzyme, not shown: large carriers)
chain: MEKQTQARFLEPWRDLKGKVVMVTGASSGIGLDLCLDLAKAGCKIIAAARRVDRLKSLCNQINAAADDDDDNNRAVAVELDVSANGDAIEAAVKEAWGAFGRIDALVNNAGVRGTVHSPLELTEEECHNTFRTNLTGTWLVSKYVCKFMRDAKQGGSVINISSIAGLNRGQLPGGLAYVSSKGAVNMVTKVMALELGVDKIRVNSISPGLFKSEITQGLIQKEWLNNVAMRTIPLRTHGNSADPALTSVVRYLIHDSSEYVSGNLFIVDAGATLPGVPIFSSL
notes: Coding region amplified from petunia petal cDNA, expressed in E. coli from pMAL-c5X, purified on amylose resin; also called MBP-tagged α-subunit; MBP-PbBSα

Data set [1] concerns the molecule itself. In words: size exclusion chromatography (Superdex 200 Increase 10/300 GL), about 1 mg/mL; self-association. On the procedure:
(§1) 500 μL purified protein (˜ 500 μg) were loaded onto a Superdex 200 Increase 10/300 GL size exclusion column and eluted with PBS. The column was calibrated with the following markers: bovine thyroglobulin (670 kDa), bovine gamma globulin (158 kDa), chicken ovalbumin (44 kDa), horse myoglobulin (17 kDa), and vitamin B-12 (1.4 kDa).

In data set [2] the target is B3. As to the kind of experiment: size exclusion chromatography (Superdex 200 Increase 10/300 GL), about 1 mg/mL. On the procedure: as §1
Background: SEC sorts molecules by how far they enter the pores of the column.

Data set [3] addresses T1, cEYFP-PhBSβ (PhBSβ tagged at its N-terminus with the C-terminal half of EYFP) (Petunia hybrida).
T1 construct: BiFC construct, transiently expressed in Nicotiana benthamiana leaves; not shown: C-terminal half of enhanced yellow fluorescent protein (cEYFP) of plasmid pCNHP-cYFP-C
T1 chain: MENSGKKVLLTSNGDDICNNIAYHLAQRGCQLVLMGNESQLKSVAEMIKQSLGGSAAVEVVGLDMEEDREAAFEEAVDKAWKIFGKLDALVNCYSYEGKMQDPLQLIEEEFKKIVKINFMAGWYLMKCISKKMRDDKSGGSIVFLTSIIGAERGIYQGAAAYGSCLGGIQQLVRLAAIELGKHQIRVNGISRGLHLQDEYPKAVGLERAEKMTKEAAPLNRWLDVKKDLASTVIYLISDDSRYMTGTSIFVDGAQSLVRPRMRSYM
In words: bimolecular fluorescence complementation (BiFC) in Nicotiana benthamiana leaves, confocal microscopy.

B1: MBP-tagged AtBSβ (beta subunit of Arabidopsis thaliana benzaldehyde synthase) (enzyme, not shown: large carriers)
chain: MENPAKRVLMTSNGDEVSRNIAFHLAKHGCKLVMMGNEGSLRSIVDKIRDSIEGAFPADVIALDMESDSEVAFHAAVQKAWELSGHFDAFLNSYTYQGKVQDILQVSQDEFHRITKINLTAPWFLLKAVATRMKDHGSGGSIVFMATIASGERALYPGADAYASTSAAIHQLVRASAMSLGKHKIRVNMISRGLHLDDEYTASVGRDRAQKLVKDAAPLGQWLNPDTDLYSTVIYLISDGSRFMTGTTVLVDGAQSLTRPRLKSYM
notes: Purified recombinant subunit from E. coli; CDS amplified from flower cDNA (gene AT3G01980)
In the case of B1, the binding result in data set [1] and in data set [2] was “binds” each time.

B2: nEYFP-PhBSα (PhBSα tagged at its N-terminus with the N-terminal half of EYFP) (other)
chain: MEKQTQARFLEPWRDLKGKVVMVTGASSGIGLDLCLDLAKAGCKIIAAARRVDRLKSLCNQINAAADDDDDNNRAVAVELDVSANGDAIEAAVKEAWGAFGRIDALVNNAGVRGTVHSPLELTEEECHNTFRTNLTGTWLVSKYVCKFMRDAKQGGSVINISSIAGLNRGQLPGGLAYVSSKGAVNMVTKVMALELGVDKIRVNSISPGLFKSEITQGLIQKEWLNNVAMRTIPLRTHGNSADPALTSVVRYLIHDSSEYVSGNLFIVDAGATLPGVPIFSSL
notes: BiFC construct, transiently expressed in Nicotiana benthamiana leaves; not shown: N-terminal half of enhanced yellow fluorescent protein (nEYFP) of plasmid pCNHP-nEYFP-C
With B2, the binding result in data set [3] is given as “binds”.

Consider B3, for which, in data set [1], the binding result is on record as “binds”.

B4: MBP-tagged PhBSβ (beta subunit of Petunia hybrida benzaldehyde synthase) (enzyme, not shown: large carriers)
chain: MENSGKKVLLTSNGDDICNNIAYHLAQRGCQLVLMGNESQLKSVAEMIKQSLGGSAAVEVVGLDMEEDREAAFEEAVDKAWKIFGKLDALVNCYSYEGKMQDPLQLIEEEFKKIVKINFMAGWYLMKCISKKMRDDKSGGSIVFLTSIIGAERGIYQGAAAYGSCLGGIQQLVRLAAIELGKHQIRVNGISRGLHLQDEYPKAVGLERAEKMTKEAAPLNRWLDVKKDLASTVIYLISDDSRYMTGTSIFVDGAQSLVRPRMRSYM
notes: Purified recombinant subunit from E. coli (pMAL-c5X, amylose resin); also called PtBSβ
Consider B4, for which the binding result in data set [1] is recorded as “binds”.
